The test addresses T1, BIN1 SH3 domain (UniProt O00499 513-593).
T1 construct: C-terminal SH3 domain of bridging integrator-1 (BIN1, amphiphysin 2); printed residues E556, E557, W562, F588 fit the 593-residue BIN1 isoform 1; Used 15N-labelled in the titrations and relaxation experiments; Construct limits, host and tags are in Malki et al., 2017; PDB 5i22 is a cited NMR structure of BIN1 SH3 in a complex, used as the starting point of the docking; also called SH3 domain of …
T1 sequence: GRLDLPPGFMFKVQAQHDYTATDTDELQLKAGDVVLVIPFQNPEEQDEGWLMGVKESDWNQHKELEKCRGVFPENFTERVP
The test is described as follows: NMR titration; 70 μM 15N-BIN1 SH3 titrated with unlabeled Tau (210–240) peptides (35 to 840 μM); 1H,15N HSQC chemical shift changes; 50 mM phosphate buffer pH 7.3, 20°C; Kd averaged over 7 resonances. The conditions noted are these: both partners purified.

B1: Tau (210–240) peptide with K224 and K225 mutated into alanines (peptide, UniProt P10636-8 210-240, looked up)
peptide: SRTPSLPTPPTREPAAVAVVRTPPKSPSSAK
notes: Tau residues 210-240 with K224A and K225A; probably as m2; also called the mutated peptide
Consider B1, for which the equilibrium dissociation constant (Kd) came to 429 ± 94 µM.

As usually defined, the Kd is the constant that tells how readily two partners part at equilibrium.
